Data from patent US20250313625A1 (ELPISCIENCE SUZHOU BIOPHARMA, published 2025).
Read-outs that look alike come from different tables or passages of the source.

Columns and labels:
[1] = target: T1, mFc tagged human LAG3 ECD recombinant protein (human, UniProt P18627 23-450); assay: competitive FACS: mFc-LAG3 ECD binding to Raji cells (MHC II)
T1 construct: extracellular domain; purchased from Biointron; not shown: mouse IgG Fc (mFc) tag
T1 sequence (looked up): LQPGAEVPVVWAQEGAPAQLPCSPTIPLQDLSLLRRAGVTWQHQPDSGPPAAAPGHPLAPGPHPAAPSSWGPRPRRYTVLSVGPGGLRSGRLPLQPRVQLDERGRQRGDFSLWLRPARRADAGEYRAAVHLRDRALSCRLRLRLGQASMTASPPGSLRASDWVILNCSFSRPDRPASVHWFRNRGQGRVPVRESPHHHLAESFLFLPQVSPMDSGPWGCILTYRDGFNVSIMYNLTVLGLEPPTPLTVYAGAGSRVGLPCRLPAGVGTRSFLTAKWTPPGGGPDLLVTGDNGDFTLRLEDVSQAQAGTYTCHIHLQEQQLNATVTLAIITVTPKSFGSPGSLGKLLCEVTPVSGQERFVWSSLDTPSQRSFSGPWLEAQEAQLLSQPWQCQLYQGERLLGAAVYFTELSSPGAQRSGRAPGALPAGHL
Method: (§1) Activity of the purified chimeric antibodies to block LAG3 and MHC II interaction was determined by competitive FACS assay. […] After washing, dye labeled anti-mouse Fc 2nd antibody (Sigma) was added and incubated at 37° C. for 1 hour. Fluorescence intensity was detected.

[2] = target: T2, human LAG3 (form used in Octet, Biacore and HDX-MS not given) (human, UniProt P18627 23-450, limits assumed); assay: SPR (Biacore), 1:1 fit
T2 sequence (looked up): T1 sequence (looked up)
Method: The association and dissociation curves were fit with 1:1 binding model, and the Ka/Kd/KD values for each antibody were calculated.

[3] = target: T3, hFc tagged human LAG3 ECD recombinant protein (human, UniProt P18627 23-450); assay: competitive ELISA format II: biotin hFc-LAG3 ECD binding to coated His-FGL1
T3 construct: range 23-450; also called biotin labelled hFc tagged human LAG3 ECD; not shown: human IgG Fc tag
T3 sequence (looked up): T1 sequence (looked up)
Method: (§2) After washing, HRP labeled anti-His 2nd antibody (Sigma) was added and incubated at 37° C. for 1 hour. Then, 100 μl/well of TMB solution (Biotechnology) was added. After incubation for 15 minutes at room temperature, the reaction was stopped by the addition of 50 μl of 1N HCl. OD 450 nm was read. […] After washing, HRP labeled anti-SA 2nd antibody (Sigma) was added and incubated at 37° C. for 1 hour. Then, 100 μl/well of TMB solution (Biotechnology) was added. After incubation for 15 minutes at room temperature, the reaction was stopped by the addition of 50 μl of 1N HCl. OD 450 nm was read. […] The competition assay of format III is a competitive FACS assay. […] After washing, dye labeled anti-His 2nd antibody (Sigma) was added and incubated at 37° C. for 1 hour. Fluorescence intensity was detected.

[4] = target: T3, hFc tagged human LAG3 ECD recombinant …; assay: competitive ELISA format II: biotin labeled hFc tagged LAG3 ECD binding to plate coated His tagged human FGL1; 023c run beside 027c and 047c
Method: as §2

[5] = target: T4, human LAG3 ECD recombinant protein (plate coated, tag not stated) (human, UniProt P18627 23-450); assay: competitive ELISA format I: His-FGL1 binding to coated LAG3 ECD
T4 construct: extracellular domain
T4 sequence (looked up): T1 sequence (looked up)

[6] = target: T5, human LAG3, full length, stably expressed on cells (human, UniProt P18627 23-525); assay: FACS on 293F cells stably expressing human LAG3
T5 construct: whole, on cells; also called CHOK1-human LAG3
T5 sequence (looked up): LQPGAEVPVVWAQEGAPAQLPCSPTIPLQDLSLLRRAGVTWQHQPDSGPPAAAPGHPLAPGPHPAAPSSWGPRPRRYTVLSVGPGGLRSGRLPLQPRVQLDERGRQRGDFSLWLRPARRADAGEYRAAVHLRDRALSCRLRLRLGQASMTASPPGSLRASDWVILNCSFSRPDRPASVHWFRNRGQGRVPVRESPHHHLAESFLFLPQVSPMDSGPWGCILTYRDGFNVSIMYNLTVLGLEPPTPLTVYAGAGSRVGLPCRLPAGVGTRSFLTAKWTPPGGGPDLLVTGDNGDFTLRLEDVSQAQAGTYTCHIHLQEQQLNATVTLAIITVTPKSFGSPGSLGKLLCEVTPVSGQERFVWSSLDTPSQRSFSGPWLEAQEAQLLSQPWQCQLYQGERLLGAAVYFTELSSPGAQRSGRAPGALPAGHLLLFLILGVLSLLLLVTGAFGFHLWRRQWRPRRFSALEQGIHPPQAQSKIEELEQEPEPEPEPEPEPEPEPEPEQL
Method: (§3) Briefly the antibodies were incubated with 2×10⁵ target cells at 4° C. for 1 hour. After washing, fluorescence labeled anti-mouse IgG 2nd antibody (Life Technologies) was added and incubated at 4° C. for 1 hour. Geometric median fluorescence intensity (MFI) was detected and EC₅₀ was calculated using GraphPad Prism9.0.
(§4) MFI was detected and EC₅₀ was calculated using GraphPad Prism9.0.

[7] = target: T3, hFc tagged human LAG3 ECD recombinant …; assay: competitive ELISA format II: biotin hFc-LAG3 ECD binding to coated His-FGL1; remark: listed apart in the source
Method: as §2

[8] = target: T1, mFc tagged human LAG3 ECD recombinant …; assay: competitive FACS: mFc-LAG3 ECD binding to Raji cells (MHC II); remark: listed apart in the source
Method: as §1

[9] = target: T5, human LAG3, full length, stably …; assay: competitive FACS format III: His-FGL1 binding to 293F-human LAG3 cells
Method: as §2

[10] = target: T5, human LAG3, full length, stably …; assay: FACS on 293F cells stably expressing human LAG3; remark: listed apart in the source
Method: as §3, §4

- IC50 [1]: 6.2 nM
- TOP blocking (%) [1]: 99.2%
- Kd [2]: 0.0775 nM
- koff [2]: 0.000441 s⁻¹
- kon [2]: 5.68e+06 M⁻¹ s⁻¹
- IC50 [3]: 1.47 nM
- TOP blocking (%) [3]: 86.8%
- IC50 (read off the curve) [4]: ~0.3 µg/mL
- Blocking ratio at 66.7 nM (%) [5]: 52.9%
- EC50 [6]: 1.3 nM
- TOP MFI [6]: 387
- IC50 [7]: 1.5 nM
- TOP blocking (%) [7]: 82.8%
- IC50 [8]: 3.7 nM
- TOP blocking (%) [8]: 94.6%
- Blocking ratio at 200 nM (%) [9]: 29%
- EC50 [10]: 0.26 nM
- TOP MFI [10]: 3430
B1: 023c (antibody, human IgG4, V domains shown)
VH: QIQLVQSGPVLKKPGETVKISCKASGYTFTESPMNWVKQAPGRGFKWMGMIYTDTGEPTYAEEFKGRFAFSLETSASTAYLQINNLKSEDTATYFCVSDYGSILYWYFDVWGTGTTVTVSS
VL: DIVMTQSHKFMSTSVGDRVSITCKASQDVSTAVAWYQQTPGQSPKLLIYSASYRYTGVPDRFTGSGSGTDFTFTISSVQAEDLAVYYCQQHYNSPPTFGAGTKLELK
notes: human IgG4 S228P / kappa chimeric antibody; also called chimeric antibody 023; ES005-023c; not shown: human kappa light chain constant region (pcDNA3.4-hIgGk vector)
